B1: Serine/threonine-protein kinase Sgk3 (Homo sapiens), Q96BR1 (parent)
chain: MQRDHTMDYKESCPSVSIPSSDEHREKKKRFTVYKVLVSVGRSEWFVFRRYAEFDKLYNTLKKQFPAMALKIPAKRIFGDNFDPDFIKQRRAGLNEFIQNLVRYPELYNHPDVRAFLQMDSPKHQSDPSEDEDERSSQKLHSTSQNINLGPSGNPHAKPTDFDFLKVIGKGSFGKVLLAKRKLDGKFYAVKVLQKKIVLNRKEQKHIMAERNVLLKNVKHPFLVGLHYSFQTTEKLYFVLDFVNGGELFFHLQRERSFPEHRARFYAAEIASALGYLHSIKIVYRDLKPENILLDSVGHVVLTDFGLCKEGIAISDTTTTFCGTPEYLAPEVIRKQPYDNTVDWWCLGAVLYEMLYGLPPFYCRDVAEMYDNILHKPLSLRPGVSLTAWSILEELLEKDRQNRLGAKEDFLEIQNHPFFESLSWADLVQKKIPPPFNPNVAGPDDIRNFDTAFTEETVPYSVCVSSDYSIVNASVLEADDAFVGFSYAPPSEDLFL

Variants of: B1
Conditions: with itch_human ITCH

Row | Variant | effect of a mutation on the interaction
1 | Y362A | decreasing interaction

From IntAct's records for PubMed 16888620
